# T1: SIRV2_Gp1 (Sulfolobus islandicus rod-shaped virus …, UniProt Q8UYE8 1-83)
# T1 sequence: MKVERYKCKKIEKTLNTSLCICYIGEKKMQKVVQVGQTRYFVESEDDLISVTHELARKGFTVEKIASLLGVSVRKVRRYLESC
# Legend:
# SIRV2_Gp1 [1] = biological target: T1, SIRV2_Gp1; assay: EMSA; low affinity, >1 uM protein needed; smearing, unbound probe remains; 6-FAM EMSA: 50 mM Tris pH 7.5, 5 mM EDTA, 1 mM DTT, 100 ug/mL BSA, 100 nM probe, 20 min room temperature; 32P EMSA: 20 mM Tris pH 8.0, 0.4 mM EDTA, 1 mM MgCl2; details: protein: recombinant; tags: C-terminal His-tag (pEXP5-CT/TOPO); label: 5'-6-FAM; single strand
# SIRV2_Gp1 [2] = biological target: T1, SIRV2_Gp1; assay: EMSA; >1 uM protein needed; higher affinity than single-stranded probes; 6-FAM EMSA: 50 mM Tris pH 7.5, 5 mM EDTA, 1 mM DTT, 100 ug/mL BSA, 100 nM probe, 20 min room temperature; 32P EMSA: 20 mM Tris pH 8.0, 0.4 mM EDTA, 1 mM MgCl2; details: protein: recombinant; tags: C-terminal His-tag (pEXP5-CT/TOPO); blunt
# SIRV2_Gp1 [3] = biological target: T1, SIRV2_Gp1; assay: EMSA; >1 uM protein needed; 6-FAM EMSA: 50 mM Tris pH 7.5, 5 mM EDTA, 1 mM DTT, 100 ug/mL BSA, 100 nM probe, 20 min room temperature; 32P EMSA: 20 mM Tris pH 8.0, 0.4 mM EDTA, 1 mM MgCl2; details: protein: recombinant, tags: C-terminal His-tag (pEXP5-CT/TOPO)
binder,measurement,setting,value
TGAGTTTTTTTCATTTTTTGCGTAAATTTC (ssDNA) [random 30-nt ssDNA (oligo 3)],binding result,SIRV2_Gp1 [1],binds
random 30-bp dsDNA (oligos 3-4) (dsDNA) DNA 1: TGAGTTTTTTTCATTTTTTGCGTAAATTTC DNA 2: GAAATTTACGCAAAAAATGAAAAAAACTCA,binding result,SIRV2_Gp1 [2],binds
hairpin DNA (oligo 5) (structured_DNA) DNA: TGAGTTTTTTTCATTTTTTGCGTAAATTTCGAAATTTACGCAAAAAATGAAAAAAACTCA,binding result,"SIRV2_Gp1 [3]; label: 5'-6-FAM, hairpin",binds
Holliday junction DNA (oligos 7-10) (structured_DNA) DNA 1: GCGTTACAATGGAAACTATTCTTGGCAGTTGCATCCAACG DNA 2: CGTTGGATGCAACTGCCAAGAATAGTGTCAGTTCCAGACG DNA 3: CGTCTGGAACTGACACTATTCTTGGCGAATGGTCGTAAGC DNA 4: GCTTACGACCATTCGCCAAGAATAGTTTCCATTGTAACGC,binding result,SIRV2_Gp1 [3]; four-way junction of 4 strands,binds

# Reference: publication PMC5537682, “DNA-Interacting Characteristics of the Archaeal Rudiviral Protein SIRV2_Gp1”
